The subject of series [1] is UreD-GFP fusion protein (urea-inducible ureD promoter). Nature of the series: Urea induction of UreD-GFP fusion, Western blot with anti-GFP. Type of series: cell-based, P. mirabilis HI4320. Conditions: 0-500 mM urea tested (FIG. 1). An excerpt: Thus, to investigate in vivo expression of P. mirabilis urease, the gene encoding green fluorescent protein (GFP) was used to construct reporter fusions. Translational fusions of urease accessory gene ureD, which is preceded by a urea-inducible promoter, were made with gfp (modified to express S65TIV68L/S72A, a well-known variant of gfp). The constructs were confirmed by sequencing of the fusion junctions. UreD-GFP fusion protein was induced by urea in both E. coli DH5a and P. mirabilis HI4320. Thereafter, Western blotting was carried out with antiserum raised against GFP.

The test system of series [2] is ureD promoter (PureD-lacZ reporter construct). Description: β-galactosidase reporter assay (PureD-lacZ) with UreR constructs. Type of series: cell-based, E. coli Top10. On the procedure: Cultures were grown to mid-log phase and induced with 0.2% (w/v) arabinose in the presence or absence of 100 mM urea for 90 min. All constructs were assayed in duplicate in five independent experiments.
More specifically, wild-type ureR was cloned into the NcoI/XhoI site of pBAD/MycHisA (Invitrogen) to create pCP016 (Poore et al, supra). This construct was used to create alanine mutants using overlapping PCR site-directed mutagenesis as described by Ho et al, Gene, 71:51-59 (1989); and Poore et al, supra. Full-length mutant ureR PCR products were then constructed by ligation into the NcoI/XhoI site of pBAD/MycHisA. Following PCR mutation to Ala, all of the cloned products in the pBAD vector were verified by sequencing. The constructs were then cotransformed with the reporter vector PureD-lacZ into E. coli Top10 (pCC142) (Invitrogen). The β-gal reporter construct pCC042 (tetR) carries a transcriptional fusion of the ureD promoter (pureD) and lacZ (Poore et al, supra). Unless otherwise stated, strains were cultured in Luria broth supplemented with ampicillin (100 μg/ml), kanamycin (50 μg/ml), or tetracycline (15 μg/ml) as required. Thereafter, activity was determined using a β-galactosidase reporter assay in the absence and presence of 100 mM urea.
More specifically, overnight cultures were diluted 1:10 into fresh medium supplemented with ampicillin. Mid-exponential cultures were induced with 0.2% (w/v) arabinose and either no urea or 100 mM urea for 1 h. Bacterial suspensions were placed on ice for 10 min and then permeabilized with 0.1% (w/v) SDS (50 μl) and chloroform (100 μl) at room temperature for 30 min. Aliquots (20-50 μl) were diluted to 1.0 ml in Z buffer comprising 200 μl o-nitrophenyl-β-D-galactopyranoside (4.0 mg/ml) and were incubated at room temperature. Timed reactions were stopped by addition of 1.0 M Na2CO3 (500 μl) and the optical densities at 420 nm and 550 nm were used to calculate Miller units for each assay (Platt et al, “Assays of β-galactosidase Activity”, In: Miller (ed.), Experiments in Molecular Genetics, Cold Spring Harbor Press, Cold Spring Harbor, N.Y., pages 352-355 (1972)). […] The results, which are shown in Table 1 below, are expressed as the average of at least three independent experiments.
The UreR Trp point mutants were confirmed by sequencing and were tested for the ability to induce β-galactosidase expression using the PureD-lacZ reporter assay in the presence of 100 mM urea as described above.

Series [3] is described as follows: Trp emission spectra of purified nUreR Trp mutants titrated with urea. Type of series: binding. The following applies: upon addition of urea (0-150 mM); excitation 280 nm; room temperature.
Description: Protein samples (2.0 μM) in 50 mM PBS (pH 7.0), were excited at 280 nm at room temperature.
Three independent experiments were used to calculate the binding constant for this mutant. ΔTrp Emission is the difference in Trp emission intensity with and without urea. The binding constant was determined by fitting the data to the corresponding Hill parameters.
More specifically, Trp emission spectra were collected at room temperature using a Varian Cary Eclipse spectrofluorometer. Purified nUreR Trp mutants (5.0 μM) were excited at 280 nm and urea-dependent emission spectra were measured on the same sample following titration with increasing concentrations (0-150 mM) of urea.
The corresponding Hill parameters were invoked using the curve fitting functions packaged with the Microcal Origin 6.0 data analysis graphing program (Northampton, Mass.).
Trp fluorescence emission spectra from 300-450 nm were taken in the presence of increasing concentrations of urea (0, 0.05, 1, 10, 100 and 150 mM).

As for `NC(N)=O` [urea], the “urea concentration giving highest induction of UreD-GFP” value in series [1] lay within 200 to 500 mM.

B1: Y54W UreR (protein, UniProt Q02458 1-293, looked up, variant Y54W)
Urease operon transcriptional …: MEYKHILSSNQISLKTFYIENPMIAIVYGAKGEICINGQTITVTTNLTLIIPKWSQVSCDVTNFFPTKPIELHTLVLSETELQSVFSLLKPLIKSGAPITRHLPDYHLSTPEVVKTNFTLLQQCLPLEHGTPSQETLFMQQSLFFILLAVYHEGVDILNIFRFNYDEPKNQAITHLITQDPQRKWHLEDVAKTLYTTPSTLRRHLSKEGVSFCQLLLDVRMPIALNYLTFSNYSVFQISHRCGFGSNAYFCDAFKRKYGMTPSQFRTQSRQANDPNAIATMASQNDESIKKVF
For B1, the “fold induction in β-galactosidase activity” value in series [2] (addition of 100 mM urea (FIG. 3)) was 2.8 fold. Besides, the “β-galactosidase reporter activity compared to wild-type UreR” value in series [2] (full-length UreR Trp point mutants, 100 mM urea (FIG. 3)) is reported as “overall reduction in the level of activation”.

B2: Y151W nUreR (protein, UniProt Q02458 1-293, looked up, variant Y151W)
Urease operon transcriptional …: MEYKHILSSNQISLKTFYIENPMIAIVYGAKGEICINGQTITVTTNLTLIIPKYSQVSCDVTNFFPTKPIELHTLVLSETELQSVFSLLKPLIKSGAPITRHLPDYHLSTPEVVKTNFTLLQQCLPLEHGTPSQETLFMQQSLFFILLAVWHEGVDILNIFRFNYDEPKNQAITHLITQDPQRKWHLEDVAKTLYTTPSTLRRHLSKEGVSFCQLLLDVRMPIALNYLTFSNYSVFQISHRCGFGSNAYFCDAFKRKYGMTPSQFRTQSRQANDPNAIATMASQNDESIKKVF
B2: the “% Decrease in Trp Emission” value in series [3] was 9 ± 2%.

B3: Wild-type: wild-type P. mirabilis UreR expressed from pBAD/MycHisA (pCP016) (protein, UniProt Q02458 1-293, looked up)
Urease operon transcriptional …: MEYKHILSSNQISLKTFYIENPMIAIVYGAKGEICINGQTITVTTNLTLIIPKYSQVSCDVTNFFPTKPIELHTLVLSETELQSVFSLLKPLIKSGAPITRHLPDYHLSTPEVVKTNFTLLQQCLPLEHGTPSQETLFMQQSLFFILLAVYHEGVDILNIFRFNYDEPKNQAITHLITQDPQRKWHLEDVAKTLYTTPSTLRRHLSKEGVSFCQLLLDVRMPIALNYLTFSNYSVFQISHRCGFGSNAYFCDAFKRKYGMTPSQFRTQSRQANDPNAIATMASQNDESIKKVF
modifications: Myc-His tag from pBAD/MycHisA
Turning to B3, the “β-Galactosidase Activity (Miller units), 0 mM urea” value in series [2] (0 mM urea, 0.2% arabinose induction, average of at least three experiments) was found to be 632 ± 203 Miller units. Further, the “β-Galactosidase Activity (Miller units), 100 mM urea” value in series [2] (100 mM urea, 0.2% arabinose induction, average of at least three experiments) amounted to 3709 ± 1570 Miller units.
